Non-standard residues stand in square brackets, D forms with d. Groups on a side chain read outwards from the residue. Primed or numbered codes have the meaning given here. No end group written: not given here. *: point of attachment. C20 diacid = O=C(O)CCCCCCCCCCCCCCCCCCC(=O)*; NMeY = CN[C@@H](Cc1ccc(O)cc1)C(=O)O; Stearoyl = CCCCCCCCCCCCCCCCCC(=O)*; αMeF = C[C@](N)(Cc1ccccc1)C(=O)O; dIva = CC[C@@](C)(N)C(=O)O; Iva = CC[C@](C)(N)C(=O)O; PEG2′ = not defined here; Aib = CC(C)(N)C(=O)O
T1: human GIPR (human), P48546
T1 chain: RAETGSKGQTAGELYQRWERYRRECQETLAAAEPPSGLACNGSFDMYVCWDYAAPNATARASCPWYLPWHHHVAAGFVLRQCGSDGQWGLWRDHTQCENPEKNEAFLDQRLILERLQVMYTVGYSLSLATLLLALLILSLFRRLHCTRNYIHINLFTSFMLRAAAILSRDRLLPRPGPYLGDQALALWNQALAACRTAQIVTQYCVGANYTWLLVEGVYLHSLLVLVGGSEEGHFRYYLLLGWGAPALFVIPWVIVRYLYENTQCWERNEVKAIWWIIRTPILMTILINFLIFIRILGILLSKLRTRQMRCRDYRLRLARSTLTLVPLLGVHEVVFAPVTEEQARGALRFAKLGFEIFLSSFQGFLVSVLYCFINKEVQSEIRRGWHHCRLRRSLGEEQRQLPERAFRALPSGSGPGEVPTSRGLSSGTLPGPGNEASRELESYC

T2: human GLP-1R (human), P43220
T2 chain: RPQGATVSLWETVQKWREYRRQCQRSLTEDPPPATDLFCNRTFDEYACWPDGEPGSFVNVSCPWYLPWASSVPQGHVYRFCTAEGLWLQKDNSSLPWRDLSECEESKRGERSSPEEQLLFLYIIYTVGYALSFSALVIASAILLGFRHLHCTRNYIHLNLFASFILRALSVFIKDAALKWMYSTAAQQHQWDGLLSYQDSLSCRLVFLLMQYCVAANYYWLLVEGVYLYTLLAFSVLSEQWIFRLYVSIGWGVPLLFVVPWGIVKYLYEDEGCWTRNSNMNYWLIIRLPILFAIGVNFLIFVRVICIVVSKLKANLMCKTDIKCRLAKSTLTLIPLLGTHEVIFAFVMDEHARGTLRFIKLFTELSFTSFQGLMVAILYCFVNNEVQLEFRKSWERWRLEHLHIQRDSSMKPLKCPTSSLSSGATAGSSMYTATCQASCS


Legend:
[1] = target: T1, human GIPR (human), P48546
[2] = target: T2, human GLP-1R (human), P43220

Row | Binder | Agonist activity (EC50, M) [1] [M] | Agonist activity (EC50, M) [2] [M]
1 | [NMeY][Aib]EGTFISDYSIALDR[Aib]AQ[Aib]NFVNWLLAQRPSSGAPPPSR (ends and bridges not checked) [Compound 82] | 1.4e-12 | 1e-07
2 | [NMeY][Aib]EGTFISDYSI[dIva]LDR[Aib]AQ[Aib]NFVNW[Iva]LAQRPSSGAPPPSR (ends and bridges not checked) [Compound 85] | 1.1e-12 | > 1e-06
3 | [NMeY][Aib]EGTFISDYSI[dIva]LDR[dIva]AQ[dIva]NFVNWLLAQRPSSGAPPPSR (not fully specified (N-terminus, C-terminus); ends and bridges not checked) [Compound 103] | 1.3e-12 | > 1e-06
4 | [NMeY][Aib]EGTFISDYSIALDR[Aib]AQ[Aib]N[αMeF]VNW[Iva]LAQRPSSGAPPPSR (ends and bridges not checked) [Compound 114] | 1e-12 | 
5 | Y[Aib]EGTVVSLYSK([Gly-Gly-Gly-Gly-Stearoyl])[Aib]LDRQAQ[Aib]EFVK(Ac)WLLAQR (ends and bridges not checked) [Compound 261] | 5.5e-11 | > 1e-06
6 | Y[Aib]EGTFISDYSK([PEG(2)-C20 diacid])ALDRIAQQNFVNW[Iva]LAQRPSSGAPPPS (not fully specified (C-terminus); ends and bridges not checked) [Compound 402] | 7.8e-11 | > 1e-06
7 | Y[Aib]EGTVVSLYSK([Gly-Gly-Gly-Gly-C20 diacid])[Aib]LDRQAQ[Aib]EFVRWLLAQR (ends and bridges not checked) [Compound 256] | 3.1e-10 | > 1e-06
8 | [NMeY][Aib]EGTFISDYSIALDRIAQQSFVNWLLAQRPSSGAPPPSR (ends and bridges not checked) [Compound 60] | 1.1e-12 | > 1e-06
9 | Y[Aib]EGTFISDYSK([PEG2′-pentadecanoyl])ALDRIAQQDFVNWLLAQRPSSGAPPPSR (ends and bridges not checked) [Compound 187] | 1.2e-11 | 
10 | [NMeY][Aib]EGTFISDYSI[dIva]LDRIAQ[Aib]NFVNWLLAQRPSSGAPPPSR (ends and bridges not checked) [Compound 83] | 1.7e-12 | 1.7e-07
11 | [NMeY][Aib]EGTFISDYSIALDRIAQQS[αMeF]VNW[Iva]LAQRPSSGAPPPSR (not fully specified (C-terminus); ends and bridges not checked) [Compound 75] | 1.4e-12 | > 1e-06
12 | [NMeY][Aib]EGTFISDYSIALDR[Aib]AQ[Aib]N[αMeF]VNWLLAQRPSSGAPPPSR (ends and bridges not checked) [Compound 98] | 1.4e-12 | > 1e-06
13 | [NMeY][Aib]EGTFISDYSIALDR[Aib]AQQD[αMeF]VNWLLAQRPSSGAPPPSR (not fully specified (C-terminus); ends and bridges not checked) [Compound 73] | 1.4e-12 | > 1e-06
14 | [NMeY][Aib]EGTFISDYSIALDRIAQQSFVNW[Iva]LAQRPSSGAPPPSR (not fully specified (N-terminus, C-terminus); ends and bridges not checked) [Compound 67] | 1.4e-12 | > 1e-06
15 | Y[Aib]EGTFISDYSK([PEG(2)-C20 diacid])ALDRIAQQNFVNW[Iva]LAQRPSSGAPPPS (not fully specified (C-terminus); ends and bridges not checked) [Compound 406] | 3.2e-10 | > 1e-06
16 | [NMeY][Aib]EGTFISDYSI[Iva]LDRIAQQD[αMeF]VNWLLAQRPSSGAPPPSR (not fully specified (C-terminus); ends and bridges not checked) [Compound 74] | 1.4e-12 | > 1e-06
17 | Y[Aib]EGTVVSLYSK([Gly-Gly-Gly-Gly-Stearoyl])[Aib]LDRQAQ[Aib]EFVRWLLAQR (ends and bridges not checked) [Compound 258] | 9.2e-11 | > 1e-06
18 | Me-Y[Aib]EGTFISDYSIALDRIAQQSFVNWLLAQRPSSGAPPPS (not fully specified (residue 1, C-terminus); ends and bridges not checked) [Compound 129] | 1.7e-12 | > 1e-06
19 | Me-Y[Aib]EGTFISDYSI[dIva]LDRIAQQDFVNWLLAQRPSSGAPPPSR (not fully specified (residue 1, C-terminus); ends and bridges not checked) [Compound 131] | 1.9e-12 | > 1e-06
20 | Me-Y[Aib]EGTFISDYSIALDR[Aib]AQ[Aib]SFVNW[Iva]LAQRPSSGAPPPSR (not fully specified (residue 1, C-terminus); ends and bridges not checked) [Compound 126] | 2.1e-12 | > 1e-06
21 | [NMeY][Aib]EGTFISDYSI[dIva]LDRIAQQDFVNWLLAQRPSSGAPPPS (ends and bridges not checked) [Compound 63] | 1.2e-12 | > 1e-06
22 | [NMeY][Aib]EGTFISDYSIALDRIAQ[Aib]N[αMeF]VNW[Iva]LAQRPSSGAPPPSR (not fully specified (C-terminus); ends and bridges not checked) [Compound 76] | 1.5e-12 | > 1e-06
23 | Y[Aib]EGTVVSLYSK([Gly-Gly-Gly-Gly-C20 diacid])[Aib]LDRQAQ[Aib]EFVK(Ac)WLLAQR (ends and bridges not checked) [Compound 259] | 1.2e-10 | > 1e-06
24 | [NMeY][Aib]EGTFISDYSI[dIva]LDR[Aib]AQQD[αMeF]VNWLLAQRPSSGAPPPSR (ends and bridges not checked) [Compound 81] | 1.5e-12 | > 1e-06
25 | [NMeY][Aib]EGTFISDYSIALDRIAQ[Aib]DFVNW[Iva]LAQRPSSGAPPPSR (ends and bridges not checked) [Compound 123] | 1.3e-12 | > 1e-06
26 | [NMeY][Aib]EGTFISDYSIALDRIAQQD[αMeF]VNWLLAQRPSSGAPPPS (ends and bridges not checked) [Compound 62] | 9.9e-13 | > 1e-06
27 | Me-Y[Aib]EGTFISDYSIALDRIAQ[Aib]S[αMeF]VNW[Iva]LAQRPSSGAPPPSR (not fully specified (residue 1, C-terminus); ends and bridges not checked) [Compound 125] | 1.8e-12 | > 1e-06
28 | Y[Aib]EGTVVSLYSK([Gly-Gly-Gly-Gly-Stearoyl])[Aib]LDRQAQ[Aib]EFVRWLLAQR (ends and bridges not checked) [Compound 257] | 9e-11 | > 1e-06

From patent US20180298070A1, “PEPTIDE COMPOUND” (Takeda Pharmaceutical Company Limited, published 2018)
